Consider two molecules from publication PMC6639331, “Reconstitution of recombinant human CCR4-NOT reveals molecular insights into regulated deadenylation”.

For series [1], the target named is T1, CAF40 module (NOT1:CAF40) (Homo sapiens, UniProt A5YKK6;Q92600 1351-1588;19-285). The series can be described thus: EMSA competition; 100 uM NOT1:CAF40 + 200 uM MBP-Bam CBM L17E;M24E; almost no effect on RNA binding; EMSA: 20 mM Tris/HCl pH 7.5, 10 mM NaCl, 2 mM MgCl2, 0.1% BSA, 0.1% Orange G, 3% Ficoll 400; 100 nM RNA; 10% native PAGE in TBE pH 8.3; temperature not stated. The conditions noted are these: protein: recombinant; tags: MBP (NOT1) and His6 (CAF40) removed; copies: 1;1; label: 5' 6-FAM.

Series [2] addresses NOT10:NOT11 (Homo sapiens, UniProt Q9H9A5;Q9UKZ1 25-707;257-498). The series can be described thus: EMSA; 1 uM protein, 100 nM RNA; EMSA: 20 mM Tris/HCl pH 7.5, 10 mM NaCl, 2 mM MgCl2, 0.1% BSA, 0.1% Orange G, 3% Ficoll 400; 100 nM RNA; 10% native PAGE in TBE pH 8.3; temperature not stated. The conditions noted are these: protein: recombinant; tags: MBP (NOT10) and C-His6 (NOT11) removed; copies: 1;1; label: 5' 6-FAM.

In series [3] the target is T1, CAF40 module (NOT1:CAF40). The series can be described thus: EMSA; 25 uM protein, 100 nM RNA; EMSA: 20 mM Tris/HCl pH 7.5, 10 mM NaCl, 2 mM MgCl2, 0.1% BSA, 0.1% Orange G, 3% Ficoll 400; 100 nM RNA; 10% native PAGE in TBE pH 8.3; temperature not stated. The conditions noted are these: protein: recombinant; tags: MBP (NOT1) and His6 (CAF40) removed; copies: 1;1; label: 5' 6-FAM.

T1 sequence (A5YKK6 1351-1588, chain 1 of 2): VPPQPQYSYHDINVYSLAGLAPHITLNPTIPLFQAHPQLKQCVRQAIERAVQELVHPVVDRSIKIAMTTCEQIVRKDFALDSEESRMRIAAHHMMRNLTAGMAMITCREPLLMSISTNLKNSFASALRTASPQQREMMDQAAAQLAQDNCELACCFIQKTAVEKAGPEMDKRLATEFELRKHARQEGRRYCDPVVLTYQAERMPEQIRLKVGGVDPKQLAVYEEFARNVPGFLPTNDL
T1 sequence (Q92600 19-285, chain 2 of 2): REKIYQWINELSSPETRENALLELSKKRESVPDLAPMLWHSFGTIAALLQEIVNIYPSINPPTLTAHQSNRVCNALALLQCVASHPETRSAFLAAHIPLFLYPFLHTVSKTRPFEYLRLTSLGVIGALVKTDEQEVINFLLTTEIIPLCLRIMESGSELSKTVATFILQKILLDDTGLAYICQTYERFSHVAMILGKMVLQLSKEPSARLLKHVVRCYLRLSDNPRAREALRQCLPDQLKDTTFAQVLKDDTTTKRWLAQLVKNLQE
NOT10:NOT11, sequence (Q9H9A5 25-707, chain 1 of 2, other chains not shown): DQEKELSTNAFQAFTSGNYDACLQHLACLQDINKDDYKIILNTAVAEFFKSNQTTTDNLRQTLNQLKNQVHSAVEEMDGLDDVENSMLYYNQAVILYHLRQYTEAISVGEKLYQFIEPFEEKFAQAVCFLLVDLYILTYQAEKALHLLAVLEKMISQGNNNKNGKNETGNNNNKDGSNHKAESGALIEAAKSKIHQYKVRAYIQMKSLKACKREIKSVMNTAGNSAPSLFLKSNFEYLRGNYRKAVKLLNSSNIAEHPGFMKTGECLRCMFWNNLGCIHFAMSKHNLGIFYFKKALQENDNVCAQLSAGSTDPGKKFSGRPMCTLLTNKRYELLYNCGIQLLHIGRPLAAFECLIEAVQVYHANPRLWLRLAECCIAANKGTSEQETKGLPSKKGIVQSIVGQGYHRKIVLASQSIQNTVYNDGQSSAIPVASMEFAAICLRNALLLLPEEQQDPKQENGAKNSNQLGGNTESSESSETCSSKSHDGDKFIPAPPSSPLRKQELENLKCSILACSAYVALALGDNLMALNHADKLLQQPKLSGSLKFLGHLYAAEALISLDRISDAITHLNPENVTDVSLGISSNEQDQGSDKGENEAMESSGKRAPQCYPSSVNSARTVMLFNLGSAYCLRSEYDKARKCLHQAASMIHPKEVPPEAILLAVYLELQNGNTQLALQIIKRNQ

On to UCUAAAUAAAAAAAAAAAAAAAAAAAA (ssRNA) [7-mer-A20], for which the binding result in series [1] and in series [2] was “binds” in each case.

For the molecule CACAUCCAACUUCUCUAAAUAAAAAAAAAAAAAAAAAAAA (ssRNA) [13+7-mer-A20], the binding result in series [3] and in series [2] was “binds” in each case.
